# Reference: US5877275A, “Controlling cellular immune/inflammatory responses with β2 integrins” (The General Hospital Corporation, priority 1995, dated 1999)
# Molecular target: iC3b (Homo sapiens, UniProt P01024)
# Assay: Binding of soluble heterodimer / wild-type receptor to iC3b-sepharose (elution, SDS-PAGE, autoradiography)
# Settings: detergent soluble fraction of 125I-surface-labelled neutrophils, immunoprecipitated with 44a mAb from eluate
# Experimental: CD11b^1089 /CD18^699 was next tested for its ability to bind iC3b (the receptor bound by wild-type CD11b/CD18). Briefly, COS cells were transfected CD11b^1089 and CD18^699 cDNA as described above. Cells were labeled with ^35 S-methionine as described by Dana et al., J. Clin. Invest. 79:1010 (1987). Supernatants from both co-transfected COS cells (7×10^6 cells) and mock-transfected COS cells (7×10^6 cells) were concentrated to one ml using collodion bags (10,000 MW cut off). 100 μl of the concentrated supernatant were used for immunoprecipitation, and the rest of the supernatant was incubated with C3b-sepharose or iC3b-sepharose. C3b-sepharose and iC3b-sepharose was washed, eluted with 0.4 M NaCl and the eluted proteins were analyzed by SDS-PAGE and autoradiography. Binding of wild-type, membrane-bound CD11b/CD18 to iC3b-sepharose or C3b-sepharose was performed as described by Arnaout et al., (In Methods in Enzymology, DiSabato, Ed., Acad. Press Inc., Fla., 1987) using the detergent soluble fraction from 1×10^8 125 I-surface-labelled neutrophils.
# FIG. 3 illustrates the results of SDS-PAGE analysis of neutrophil-derived ^125 I-surface-labeled glycoproteins eluted from C3b-sepharose and iC3b-sepharose. Eluants from C3b-sepharose (lane a) contained complement receptor type 1 (250kD) and the C3-binding regulatory protein gp45/70 (45-70 kD). […]
# iC3b, sequence (P01024 23-667 limits assumed): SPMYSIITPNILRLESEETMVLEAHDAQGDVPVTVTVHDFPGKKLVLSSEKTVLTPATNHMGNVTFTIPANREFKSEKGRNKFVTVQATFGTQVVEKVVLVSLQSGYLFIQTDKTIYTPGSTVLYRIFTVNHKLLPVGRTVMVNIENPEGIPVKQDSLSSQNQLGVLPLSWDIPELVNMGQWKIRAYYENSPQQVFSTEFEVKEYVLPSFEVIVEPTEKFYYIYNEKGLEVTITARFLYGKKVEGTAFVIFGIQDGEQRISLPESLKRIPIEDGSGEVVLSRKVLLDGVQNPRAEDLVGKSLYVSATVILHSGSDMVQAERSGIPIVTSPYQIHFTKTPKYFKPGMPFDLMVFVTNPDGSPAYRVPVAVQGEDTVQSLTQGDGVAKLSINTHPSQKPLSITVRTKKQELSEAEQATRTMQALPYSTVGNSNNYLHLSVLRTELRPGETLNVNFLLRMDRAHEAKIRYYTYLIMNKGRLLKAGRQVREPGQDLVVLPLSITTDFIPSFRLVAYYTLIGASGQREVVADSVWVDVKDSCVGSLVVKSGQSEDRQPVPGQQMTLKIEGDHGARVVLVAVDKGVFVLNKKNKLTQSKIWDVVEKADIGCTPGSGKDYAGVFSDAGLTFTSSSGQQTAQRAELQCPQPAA
# iC3b, sequence (P01024 749-954 limits assumed): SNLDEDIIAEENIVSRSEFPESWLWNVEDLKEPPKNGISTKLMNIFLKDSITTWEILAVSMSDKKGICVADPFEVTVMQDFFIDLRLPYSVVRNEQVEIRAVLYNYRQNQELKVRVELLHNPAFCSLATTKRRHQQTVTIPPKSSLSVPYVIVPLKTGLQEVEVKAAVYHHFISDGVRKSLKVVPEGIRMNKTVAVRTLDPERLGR
# iC3b, sequence (P01024 955-1303 limits assumed): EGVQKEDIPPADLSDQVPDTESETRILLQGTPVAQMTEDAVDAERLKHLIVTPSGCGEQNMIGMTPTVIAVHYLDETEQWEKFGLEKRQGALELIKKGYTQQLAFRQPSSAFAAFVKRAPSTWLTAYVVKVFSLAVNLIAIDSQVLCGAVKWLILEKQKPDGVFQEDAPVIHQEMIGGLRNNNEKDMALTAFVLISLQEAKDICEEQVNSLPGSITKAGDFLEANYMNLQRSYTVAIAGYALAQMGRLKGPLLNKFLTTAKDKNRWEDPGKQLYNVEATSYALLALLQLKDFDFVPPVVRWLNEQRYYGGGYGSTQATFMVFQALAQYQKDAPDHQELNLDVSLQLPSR
# iC3b, sequence (P01024 1321-1663 limits assumed): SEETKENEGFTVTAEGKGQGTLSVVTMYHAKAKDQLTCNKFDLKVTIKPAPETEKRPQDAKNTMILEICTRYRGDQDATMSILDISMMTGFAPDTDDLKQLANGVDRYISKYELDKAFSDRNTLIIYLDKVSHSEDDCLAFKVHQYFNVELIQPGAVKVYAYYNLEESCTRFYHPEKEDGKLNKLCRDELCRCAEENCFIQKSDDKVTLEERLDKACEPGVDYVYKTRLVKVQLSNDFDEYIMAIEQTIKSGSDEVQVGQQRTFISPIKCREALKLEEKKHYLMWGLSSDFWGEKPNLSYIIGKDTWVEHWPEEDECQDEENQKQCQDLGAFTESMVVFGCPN
substance,measurement,value
"CD11b/CD18: wild-type, membrane-bound CD11b/CD18 from surface-labelled neutrophils",binding to iC3b-sepharose,eluted from iC3b-sepharose
